Reference: paper PMC3392526
Like-named read-outs stand apart in the source and are kept apart here.

Key:
Test in all cases: crystal structure
[1] = biological target: T1, ALKBH2-dN55 crosslinking mutant (Homo sapiens, UniProt Q6NS38 56-261, C67S;C165S;G169C;C192S)
T1 sequence: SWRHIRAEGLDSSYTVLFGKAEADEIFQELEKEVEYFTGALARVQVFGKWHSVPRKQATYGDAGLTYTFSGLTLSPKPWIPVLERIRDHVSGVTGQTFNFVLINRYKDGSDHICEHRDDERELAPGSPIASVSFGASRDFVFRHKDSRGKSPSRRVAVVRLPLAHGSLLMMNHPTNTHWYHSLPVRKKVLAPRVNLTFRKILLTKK

[2] = biological target: T1, ALKBH2-dN55 crosslinking mutant; remark: listed apart in the source
[3] = biological target: T1, ALKBH2-dN55 crosslinking mutant; remark: listed apart in the source
[4] = biological target: T1, ALKBH2-dN55 crosslinking mutant; remark: listed apart in the source

B1: CI DNA (dsDNA)
DNA 1: ATGTATCACTGCG
DNA 2: TCGCAGTGATACA
modifications: C* (position 9 of strand 1): disulfide crosslinking cytosine; strand 2 position 8 is inosine (written G)
- binding result [1]: binds

B2: eA DNA (dsDNA)
DNA 1: CTGTCAAACTGCG
DNA 2: TCGCAGTTAGACA
modifications: 1,N6-ethenoadenine at position 7 of strand 1 (written A); no C* printed in this strand
- binding result [2]: binds

B3: 3-meC DNA (dsDNA)
DNA 1: CTGTCTCACTGCG
DNA 2: TCGCAGTGAGACA
modifications: 3-methylcytosine at position 7 of strand 1 (written C); C* (position 9): disulfide crosslinking cytosine
- binding result [2]: binds

B4: CG DNA (dsDNA)
DNA 1: CTGTCATCACTGCG
DNA 2: TCGCAGTGATGACA
modifications: C* (position 10 of strand 1): disulfide crosslinking cytosine
- binding result [3]: binds

B5: AT DNA (dsDNA)
DNA 1: ATGTATAACTGCG
DNA 2: TCGCAGTTATACA
modifications: C* (position 9 of strand 1): disulfide crosslinking cytosine
- binding result [4]: binds
